Assay results as given in US20100003195A1 (published 2010).

T1: human KDR-Fc chimeric fusion (R&D Systems #357-KD-05) (human, UniProt P35968 20-764)
T1 chain: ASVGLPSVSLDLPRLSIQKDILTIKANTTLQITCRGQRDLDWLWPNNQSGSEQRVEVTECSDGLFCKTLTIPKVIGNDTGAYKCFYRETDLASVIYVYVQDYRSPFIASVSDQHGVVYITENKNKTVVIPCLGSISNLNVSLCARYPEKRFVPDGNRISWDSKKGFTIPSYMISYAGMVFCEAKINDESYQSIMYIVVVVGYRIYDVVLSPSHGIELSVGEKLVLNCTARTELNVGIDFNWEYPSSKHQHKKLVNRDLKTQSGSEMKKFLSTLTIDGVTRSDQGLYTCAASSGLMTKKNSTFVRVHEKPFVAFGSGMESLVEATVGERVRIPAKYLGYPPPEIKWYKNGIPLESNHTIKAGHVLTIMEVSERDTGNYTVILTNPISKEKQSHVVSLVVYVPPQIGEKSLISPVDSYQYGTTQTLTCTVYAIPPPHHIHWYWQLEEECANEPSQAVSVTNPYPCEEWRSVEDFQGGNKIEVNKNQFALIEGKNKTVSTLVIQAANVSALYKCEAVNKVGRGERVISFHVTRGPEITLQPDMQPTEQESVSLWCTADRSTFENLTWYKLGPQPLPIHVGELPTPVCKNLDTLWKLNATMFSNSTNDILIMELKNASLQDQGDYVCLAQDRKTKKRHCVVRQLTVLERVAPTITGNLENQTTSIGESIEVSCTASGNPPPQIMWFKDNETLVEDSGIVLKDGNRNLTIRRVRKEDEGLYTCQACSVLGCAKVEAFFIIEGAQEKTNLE


Target: T1, human KDR-Fc chimeric fusion (R&D …)
Experiment: -; KD, B

Row | Kd [nM] | Binder
1 | 1300 | GDSRVCWEDSWGGEVCFGGGK [GDSRVCWEDSWGGEVCFGGGK (SEQ ID NO: 369)]
2 | 910 | VCWEDSWGGEVCFGGGK [VCWEDSWGGEVCFGGGK (SEQ ID NO: 368)]
3 | 35 | SRVCWEDSWGGEVCFRYGGGGK [SRVCWEDSWGGEVCFRYGGGGK (SEQ ID NO: 371)]
